Test results reported in the supplement of paper PMC12042874.
± gives the uncertainty stated by the source.

Assay: amyloid nucleation score (Sup35N fusion, yeast selection) (log enrichment); library NNK2; higher = more nucleation; inactive = no reads after selection
Procedure, shortened: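 After 24 hours of induction with 100 μM copper sulfate, psi-negative yeast expressing peptides of 20 random codons fused to Sup35N were grown for 7 days at 30°C on medium lacking adenine and uracil. Input and output plasmid inserts were sequenced with Illumina, and sequences with under 100 input reads were discarded. Scores for nucleation are the DiMSum log enrichment of output over input reads, centred on the mode score of non-aggregating sequences.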

Substance	amyloid nucleation score
KPCSGIRVCIDLCYPP	0.383 ± 0.74
KPHGGGSRLGCRGKWLTILL	1.29 ± 0.32
KPIIGGVSTERSLVIAGVHL	0.011 ± 0.79
KPWFVVDRKNFRSNSAPWLG	0.073 ± 0.29
KQHVRMYWIAALAPMSGRGW	4.448 ± 0.042
KQIVFSANFDHRGGLVVLRW	3.08 ± 0.073
KQLRSSVSSSYYHGNTVCAE	0.794 ± 0.39
KQMFRQFLCGNVYNWRYMRA	0.298 ± 0.56
KQPLYCHDWFHLCGSDSTSF	2.75 ± 0.16
KRGMRRKGDFTERKVETLVG	2.39 ± 0.11
KRILS	-0.13 ± 0.34
KRLCYVSYWIYSYSRDGELK	-1.23 ± 1.1
KRLTPS	0.155 ± 1.1
KRNDCLFGRVALCGMFRLSA	0.198 ± 0.5
KRNVLLLYYSCSAICSRYVV	-0.22 ± 0.63
KRRKSSTTVSKVGTGLEWMG	0.874 ± 0.15
KRRSNSTILGPINSPRVAEG	-0.258 ± 0.42
KRSLIINGAATT	1.61 ± 0.26
KRSVVKNLG	0.157 ± 0.29
KSAYIGASNHAEIRHQSLSS	0.253 ± 0.24
KSETAVRVNGYGAKIQE	-0.224 ± 0.79
KSFIGWLYMDTEYHWMYQPW	0.27 ± 0.28
KSRLGCTWSGAHQSIRPLRR	1.22 ± 0.41
KSSDGPKAQV	1.13 ± 0.16
KSVWLKVGCQPPIRFEFCEM	0.037 ± 0.49
KTFTWHIVRLYYKYPPMPKV	inactive

Substance	amyloid nucleation score
KTGESMVNPIARMWLR	1.51 ± 0.17
KTGYINCSIMDYMV	inactive
KTHIREVCEGVTIIHKWTWV	-0.508 ± 0.63
KTRYALPVDQCYMKNRNMLV	0.295 ± 0.51
KVESVKHRQNKGFYCWLVRN	-1.25 ± 0.75
KVGDQLQLRTSATV	0.459 ± 0.22
KVMGYGYA	-1.02 ± 0.55
KVRDCDIMAPNIMVRSLNRS	1.73 ± 0.16
KVRFHSL	2.72 ± 0.11
KVRKYSEFSLQSQCDPLGRG	0.455 ± 0.5
KVSWFVRIYMCEIRMRIGRS	1.44 ± 0.33
KVWECLEAGNFGVDMRWCDR	0.524 ± 0.31
KWIRDIRDLQTH	-0.275 ± 0.65
KWTFLRLILTMV	-0.511 ± 0.56
KWVGQLTVVMWLKCNPFCFE	0.257 ± 0.64
KWVMRNIWDTYSKVGLQSST	-0.206 ± 0.39
KYCHLWCEKGMELSALSEAV	0.001 ± 0.76
KYGDNSMYLMLLMVCYKGAC	-0.622 ± 1.1
KYGTSIVTHGAVKDAKYCCR	3.44 ± 0.062
KYHRI	-0.721 ± 0.74
KYLRVDMVNMNAYKGHWEGS	0.526 ± 0.66
KYNDGEFIVVIVGILAYAVV	-0.238 ± 0.34
LADTVIMGLGSTLFVYVYLI	3.88 ± 0.077
LAGLALITIIDIFGDNGRMI	3.2 ± 0.082
LAIVQ	-0.256 ± 0.42
LANYYTDSVRPSCGY	-0.022 ± 0.55

Substance	amyloid nucleation score
LAPLNSWKTY	-0.045 ± 0.56
LARACKIEAYFLLVHVSIMC	-0.174 ± 0.76
LASFGLRGVRQCQMNAE	1.78 ± 0.15
LASPGTRFSFGSLVACGVVQ	-0.178 ± 0.35
LAWITKSMFLL	0.672 ± 0.56
LAWLCRWGSVTYYCYSFGQV	-0.841 ± 0.62
LCACIELSNKMLLTFNSNVK	-0.517 ± 0.32
LCCGLFFFVRVY	2.06 ± 0.091
LCCVVEN	-0.603 ± 0.42
LCFQVVMPWNNISLSFLWLG	0.759 ± 0.52
LCFSVNLARNLWLDNWVGGR	6.12 ± 0.084
LCGAILIIVHYYG	5.446 ± 0.047
LCGFTIPSNVSLGRR	4 ± 0.11
LCILTRTYSAQA	-0.238 ± 0.49
LCISIRD	-0.111 ± 0.8
LCLTLVRPPRSCMLATL	inactive
LCMKYGVCVYVLFGWCKYTV	-0.068 ± 0.79
LCPVLYT	inactive
LCRMCIANCLMSCWESSYQV	3.13 ± 0.17
LCRYTCSSLSVYLNNMILCG	1.33 ± 0.13
LCSFAMKLVCNRVMAFDIES	1.68 ± 0.19
LCSKGYIMRSAGCRVDCSGV	-0.58 ± 0.41
LCSRSYGFRFYFSSGAQSVR	0.541 ± 0.66
LCSVQLRLMVAHNSRHLACM	1.5 ± 0.25
LCSVWEVFLYFF	1.84 ± 0.11
LCTIRFVNIFVCRMSKLNSH	-1.4 ± 0.62

Substance	amyloid nucleation score
LCVYNPNVKYVHPCWTASGG	-0.529 ± 0.44
LCWMRFLDSCEEVHKSIHVF	0.38 ± 0.39
LDPTVPGVIANVPNRRLARS	5.87 ± 0.061
LDSQMWNMSGQVRTRIGRSV	0.459 ± 0.43
LEAMVTITT	0.273 ± 0.39
LEHQSRSFMNFYTRPNKPLE	-0.519 ± 1
LERFSATYLKAWSGGVCVRV	-0.067 ± 0.65
LFASALFRMVSAFLEVAIL	0.722 ± 0.43
LFCRSSC	inactive
LFECMPYGLNAKDSCADSNV	-0.303 ± 0.5
LFFIIDNSQLSSSVDGLIVE	-0.583 ± 1
LFGSKVHSSWRPSCLFTSAV	0.377 ± 0.33
LFGVSMSKADMSFWQDSGTR	4.77 ± 0.092
LFIEGNVSWGYACLHIRSVG	0.039 ± 0.79
LFKEDRDRCSC	0.99 ± 0.49
LFLGYMSLCVVYVLAFGRFE	3.79 ± 0.043
LFLHVSGNAYGNNCRLSGPL	0.369 ± 0.22
LFLRLVNQMVLLIKEWNVWG	0.196 ± 0.3
LFMACLIGIFFHVETTRCRW	2.5 ± 0.13
LFNGTMY	inactive
LFNSAVLK	-0.092 ± 0.33
LFPSLMAVNVQRSDTGPSHG	1.2 ± 0.45
LFQLGASTR	0.147 ± 0.76
LFWELEM	4.7 ± 0.091
LFYSTPDRCKRVDVSGISLM	-0.325 ± 0.76
LGCNDSWEWDFVTPNGTFPF	-0.445 ± 0.48

Substance	amyloid nucleation score
LGFAMWFTPRFCFTVYNSYD	-0.422 ± 1
LGHAISAHVMIIICWKDVFL	5.08 ± 0.077
LGHFSFD	inactive
LGIIQTVCRHGLQFMCVSRG	-0.122 ± 0.49
LGLTYGHHWY	3.12 ± 0.071
LGMRLFRNVCYGLPSRSNRR	1.64 ± 0.41
LGPGLDLSIINYEWIIF	-0.202 ± 0.79
LGPLVMVFCVRIPYTTMVAW	-1.25 ± 0.45
LGPMTLATTLFNCKDRHVSP	0.438 ± 0.29
LGRCSALGYIRISCTMKGAG	0.21 ± 0.74
LGRIHYNLFYVYV	2.27 ± 0.14
LGRKR	-0.725 ± 0.76
LGSNEPL	-0.337 ± 0.63
LGWASYVYGCGRRGGSCRGW	1.87 ± 0.12
LGYKVSK	2.63 ± 0.19
LGYMVVK	-1.35 ± 0.75
LHAHYWCRVSKEPCCWCKMG	1.02 ± 0.49
LHCLAISFNNFSLMVLYAGN	-0.187 ± 0.54
LHHYAFFSHM	inactive
LHIFSSWTRW	-0.451 ± 0.76
LHIGKFNVNLFN	4.32 ± 0.045
LHIYTKVHRSR	3.59 ± 0.13
LHRTLSRRTEVR	3.54 ± 0.086
LHSCLMCRTSMWSVSIWLKL	-0.049 ± 0.74
